Assay results from paper PMC11046469, “Leveraging a Phage-Encoded Noncanonical Amino Acid: A Novel Pathway to Potent and Selective Epigenetic Reader Protein Inhibitors” (ACS Central Science, 2024).
Where two headings read alike, the source gives them in different places. Where a SMILES comes first, the peptide text is derived from it. Where no end group is shown, it is not given here. The star is where a group is joined. 2Furoyl = O=C(c1ccco1)*; Butyryl = CCCC(=O)*

Columns and labels:
[1] = molecular target: T1, NanoLuc-ENL YEATS expressed in HEK293T cells (Homo sapiens, UniProt Q03111); test: ENL-NanoBRET cellular target engagement assay with tracer SR-0813T; format: cell-based
T1 construct: The complementary DNA encoding ENL YEATS (aa 1-148) was cloned into pCDH-EF1-Nluc; expressed in transfected cells
T1 sequence (Q03111 1-148): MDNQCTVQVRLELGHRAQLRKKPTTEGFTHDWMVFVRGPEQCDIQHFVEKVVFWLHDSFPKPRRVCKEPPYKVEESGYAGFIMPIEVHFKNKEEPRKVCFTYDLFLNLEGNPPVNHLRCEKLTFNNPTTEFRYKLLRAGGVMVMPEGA
Source text: For peptides developed for intracellular targets, a common concern is their cellular permeability to engage the targets. For the ENL YEATS domain that is a nuclear protein, its inhibitors will also need to translocate to the nucleus to exert their inhibition activities. […] We attached FITC to tENL-S1o to afford FITC-tENL-S1o that could be fluorescently imaged. […] Although results from this pilot study were very encouraging, the conjugated FITC could have assisted the cellular penetration process. A more accurate assay was needed for the use of unmodified peptides. In light of this, we proceeded to use a NanoBRET assay to evaluate whether our developed peptides could permeate into cells and engage the ENL YEATS domain in the cellular melieu.[46] The NanoBRET assay is an emerging cutting-edge technique that is robust and sensitive in assessing not just cellular permeability of a developed ligand but also the ligand engagement with its protein target in the cellular environment. A significant advantage of the NanoBRET assay over the fluorophore conjugation and other approaches is allowing intact ligands to be used. […] There are three components required to gauge the peptide inhibitory potency for ENL expressed in cells through NanoBRET assays: (1) an ENL YEATS-NanoLuc luciferase fusion protein, (2) a NanoLuc luciferase substrate, and (3) a fluorescent tracer that binds specifically and reversibly to the reader channel of ENL YEATS. […] The cellular potency of peptides can be determined through the decrease in BRET as test peptides engage the ENL YEATS domain and displace the tracer. […]
Meanwhile, we established a stable cell line for NanoLuc-ENL YEATS expression. The binding of SR-0813T to […] was also validated using a fluorescence polarization assay (Figure S16).
Using the developed ENL-NanoBRET assay, we then characterized the cellular potency of our developed peptidyl inhibitors. […] The apparent intracellular affinity of tENL-S1f was further evaluated by NanoBRET at various tracer concentrations (Figure 5D). […]
Fluorescence microscopy study with FITC-6AHX-tENL-S1o: […]

[2] = molecular target: T2, ENL YEATS domain (His-ENL) (Homo sapiens, UniProt Q03111); test: Biolayer interferometry (BLI) binding to ENL YEATS; settings: ratio KD,AF9 / KD,ENL
T2 construct: (aa 1−148) was cloned in pET19b; made in house; host or cells: E. coli BL21(DE3pLysS)
T2 sequence (Q03111 1-148): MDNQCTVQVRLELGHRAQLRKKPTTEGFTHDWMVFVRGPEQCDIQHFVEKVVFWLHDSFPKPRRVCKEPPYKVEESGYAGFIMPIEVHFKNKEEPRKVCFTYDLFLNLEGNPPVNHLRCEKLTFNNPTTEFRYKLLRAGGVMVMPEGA
Source text: To test the inhibition potency of the two selected peptides for the ENL YEATS domain, ENL-S1 and ENL-S2 were chemically synthesized through solid-phase peptide synthesis (SPPS) and evaluated by an AlphaScreen assay. In this assay, a biotinylated H3K27cr peptide and a 6xHis-tagged ENL YEATS domain (His-ENL YEATS) were immobilized on PerkinElmer streptavidin donor and nickel-chelating (Ni-NTA) acceptor beads, respectively. The use of a His-ENL YEATS instead of the original AviSUMO-ENL YEATS construct in the assay prevents potential false positive results derived from ligands which bind to the SUMO protein but not to the ENL YEATS domain. […] We then assessed the binding affinity of two ligands for the ENL YEATS domain using biolayer interferometry (BLI). Briefly, His-ENL was immobilized onto Ni-NTA functionalized biosensors to measure the binding kinetics of target peptides at different concentrations. […] As a small peptide directly selected from a phage display library, this level of high potency was unexpected. […] However, shorter-than-10-mer linear peptides with nanomolar binding potency have rarely been directly selected from phage display libraries. One example was S2P03, a 7-mer peptide that has a KD value as 49 ± 9 nM to bind to SIRT2.[10] This peptide contained BuK and was identified also from a BuK-containing phage display library using the active site-directed ligand selection technique. Taken together, the two examples confirmed that utilizing phage display libraries incorporated with a ncAA serving as a ligand for a protein target for active site-directed ligand selection is a successful method for identifying ultrahigh potency ligands for epigenetic proteins including both enzymes and readers. For ENL-S1 and ENL-S2, their determined kon and koff values were 6.23 ± 0.07 × 10^4 M^–1 s^–1, […] and […], 5.54 ± 0.02 × 10^–3 s^–1, respectively. Compared to ENL-S2, ENL-S1 has faster binding to the ENL YEATS domain and slower release from it, indicating its potential long-term action on the ENL YEATS inhibition. […]
Biolayer Interferometry to Validate ENL Ligands:
His-ENL, His-AF9 (aa 1-149, EpiCypher), His-GAS41 (aa 15-160, EpiCypher), and YEATS2-His (aa 200-345, EpiCypher) were reconstituted in water and diluted into assay buffer (20mM Tris, 300 mM NaCl, pH 7.9) for immobilization onto Octet Ni-NTA biosensors (Sartorius). Lyophilized peptides were dissolved in DMF and diluted to designated concentrations in assay buffer. Biolayer interferometry assays were performed in 96 well plates (GreinerBio-One, polypropylene, flat-bottom) using an Octet Red96 System (Sartorius). Wells were filled with 200 μL of assay buffer, blocking buffer (assay buffer + 0.1% BSA), protein solution, peptide solution, regeneration solution, and reload solution. For immobilization, His-tagged proteins were immobilized onto Ni-NTA sensors at 20 for 600 s. Sensors were then dipped into blocking buffer for 180 s, assay […] buffer for 300 s, peptide solution for 300 s, and back to assay buffer for 300 s. If multiple samples were tested, Ni-NTA sensors can be reconditioned in regeneration (10 mM glycine, pH 1.7) solution followed by reload solution (10 mM NiCl2) for 30 and 60 s, respectively. Measurements were carried out at 30 °C. Data were analyzed within the ForteBio Data Analysis software. Data were processed by double subtracting ligand only and protein only reference wells and aligning the data to the beginning of the association. Then, global kinetic fit was performed for all sensogram curves with a 1:1 model. Steady state KD values were reported.
AlphaScreen Assay with Biotinylated-ENL-S1:
The AlphaScreen assay was carried out in 384-well plates. Manual assay setup was performed in a 40 uL reaction buffer (50 mM HEPES pH 7.4, 100 mM NaCl, 0.1% bovine serum albumin, and 0.05% CHAPS). 10 µL of varying concentrations of His-ENL YEATS (0-300 nM) and 10 µL of […]

AF9 YEATS domain [3] = molecular target: T3, AF9 YEATS domain (human, UniProt P42568 1-138); test: BLI
T3 chain: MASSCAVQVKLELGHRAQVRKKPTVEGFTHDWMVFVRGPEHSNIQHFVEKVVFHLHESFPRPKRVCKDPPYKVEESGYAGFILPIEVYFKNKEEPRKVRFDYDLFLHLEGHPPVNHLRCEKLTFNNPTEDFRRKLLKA

[4] = molecular target: T4, 6xHis-tagged ENL YEATS domain (human, UniProt Q03111 1-148); test: BLI
T4 chain: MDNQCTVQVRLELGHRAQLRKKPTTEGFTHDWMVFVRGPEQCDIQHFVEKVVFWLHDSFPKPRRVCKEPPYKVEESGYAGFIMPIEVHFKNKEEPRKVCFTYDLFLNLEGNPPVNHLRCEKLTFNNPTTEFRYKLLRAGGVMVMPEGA

[5] = molecular target: T4, 6xHis-tagged ENL YEATS domain
AF9 YEATS domain [6] = molecular target: T3, AF9 YEATS domain; test: BLI; His-ENL immobilised on Ni-NTA biosensors, peptides in solution at different concentrations (set-up told for ENL YEATS; the other YEATS domains were analysed 'similarly')
AF9 YEATS domain [7] = molecular target: T3, AF9 YEATS domain
AF9 YEATS domain [8] = molecular target: T3, AF9 YEATS domain; test: AlphaScreen or HTRF; competition: AF9 YEATS and its corresponding acylated histone peptide; test peptide varied; n = 3
[9] = molecular target: T4, 6xHis-tagged ENL YEATS domain; test: AlphaScreen or HTRF; competition: biotinylated H3K27cr peptide on streptavidin donor beads, His-ENL YEATS on nickel-chelating (Ni-NTA) acceptor beads; test peptide varied; n = 3
[10] = molecular target: T4, 6xHis-tagged ENL YEATS domain; test: BLI; His-ENL immobilised on Ni-NTA biosensors, peptides in solution at different concentrations (set-up told for ENL YEATS; the other YEATS domains were analysed 'similarly')

CC(=O)N[C@H](C(=O)N[C@@H](Cc1ccc(O)cc1)C(=O)N[C@@H](CS)C(=O)N[C@@H](Cc1ccc(O)cc1)C(=O)N[C@@H](CCCCNC(=O)c1ccco1)C(N)=O)C(C)C [tENL-S1f] (Ac-VYCYK(2Furoyl)-NH2)
IC50 ([1]; 0.5 μM SR-0813T tracer, read-out: NanoBRET IC50): 4.1 ± 1.1 µM
IC50 ([1]; 1.0 μM SR-0813T tracer, read-out: NanoBRET IC50): 4.2 ± 1.1 µM
IC50 ([1]; 2.5 μM SR-0813T tracer, read-out: NanoBRET IC50, displacement of SR-0813T from NanoLuc-ENL): 6.4 ± 1.6 µM
Selectivity (ENL:AF9) from BLI KD values [2]: 12.0 fold

Ac-VYCYK(2Furoyl) [tENL-S1f]
Kd (AF9 YEATS domain [3]): 3.67 µM
Kd [4]: 307 nM
decrease in qPCR of the ENL target genes HOXA9, MEIS1, MYB and MYC in MOLM-13 cells (endogenous ENL) treated with tENL-S1f at 10 and 50 μM [5]: 30%
growth of MV4;11 cells (MLL-r leukemia line sensitive to ENL depletion; endogenous ENL) treated with tENL-S1f for 14 days [5]: 50%
fold selectivity for ENL YEATS over AF9 (AF9 YEATS domain [6]): 12 fold

YDVYCYK(Butyryl) [ENL-S1]
IC50 (AF9 YEATS domain [7]): 250 nM
fold lower potency (IC50) toward AF9 YEATS than toward ENL YEATS (AF9 YEATS domain [8]): 4 fold
IC50 [9]: 63 nM
Kd [10]: 36.3 nM
kon [10]: 62300 M⁻¹ s⁻¹
